# Results taken from patent US20100040633A1 (published 2010).
# T1: TGF-beta 3 (human, UniProt P10600 301-412)
# T1 construct: Bought protein; also called TGF-β3
# T1 sequence (looked up): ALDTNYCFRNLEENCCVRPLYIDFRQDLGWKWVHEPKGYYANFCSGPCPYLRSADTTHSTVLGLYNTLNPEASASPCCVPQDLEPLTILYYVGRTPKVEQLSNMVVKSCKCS
# B1: mAb 21D1 (antibody, human IgG4 S228P, kappa, V domains shown)
# VH: QVQLVQSGAEVKKPGASVKVSCKASGYTFTDYNIHWVRQAPGQGLEWMGYIYPYDGETGYNQKFKSRVTMTTDTSTSTAYMELRSLRSDDTAVYYCARGYRWFAYWGQGTLVTVSS
# VL: DIQMTQSPSSLSASVGDRVTITCRASSSVPYMHWFQQKPGKAPKSLIYATSNPAYGVPSRFSGSGSGTDFTLTISSLQPEDFATYYCQQWDLNPPAFGQGTKLEIKR
# notes: Full-length IgG4 antibody; also called LA307-21D1
# B2: mAb 23A3 (antibody, V domains shown)
# VH: QVQLVQSGAEVKKPGASVKVSCKASGYDFTDYNMVWVRQAPGQGLEWMGSIYPYDGETGYNQKFKSRVTMTTDTSTSTAYMELRSLRSDDTAVYYCARGYRAFEYWGQGTLVTVSS
# VL: DIQMTQSPSSLSASVGDRVTITCRASSSVPYMHWYQQKPGKAPKLLIYATSNPAYGVPSRFSGSGSGTDFTLTISSLQPEDFATYYCQQWDLNPPAFGQGTKLEIK
# B3: mAb DM4 (antibody, human IgG4 S228P, kappa, V domains shown)
# VH: QVQLVQSGAEVKKPGASVKVSCKASGYDFTDYNIHWVRQAPGQGLEWMGYIYPYDGETGYNQKFKSRVTMTTDTSTSTAYMELRSLRSDDTAVYYCARGYRWLAYWGQGTLVTVSS
# VL: DIQMTQSPSSLSASVGDRVTITCRASSSVSYMHWYQQKPGKAPKPLIYATSNLAYGVPSRFSGSGSGTDFTLTISSLQPEDFATYYCQQWDLNPPAFGQGTKLEIKR
# notes: Full-length IgG4 antibody; also called LA307-DM4
# B4: mAb DM7 (antibody, V domains shown)
# VH: QVQLVQSGAEVKKPGASVKVSCKASGYDFTDYNMHWVRQAPGQGLEWMGYIYPYDGETGYNQKFKSRVTMTTDTSTSTAYMELRSLRSDDTAVYYCARGYRWLYYWGQGTLVTVSS
# VL: DIQMTQSPSSLSASVGDRVTITCRASSSVSYMHWYQQKPGKAPKPLIYATSNLAKGVPSRFSGSGSGTDFTLTISSLQPEDFATYYCQQWDLNPPAFGQGTKLEIK
# Target: T1, TGF-beta 3
# Experiment: ratio of Biacore Kd for TGF-β3 to Kd for TGF-β1
# Experimental: Affinities of binding composition mAbs for TGF-β3 are determined using BIAcore methods. All measurements are performed at room temperature. Samples are dissolved in HBS-EP buffer (150 mM sodium chloride, 3 mM EDTA, 0.01% (w/v) surfactant P-20, and 10 mM HEPES, pH 7.4). Recombinant Protein A is immobilized on four flow cells of a CM4 sensor chip at a level of 400-450 response units (RUs) using an amine coupling kit. Binding is evaluated over multiple analytical cycles. Each cycle is performed at a flow rate of 100 μL/minute consisting of the following steps: injection of 15 μL of an antibody binding composition at 0.5 μg/mL, injection of 250 μL of TGF-β3 (starting at 5 nM and using two-fold serial dilutions to […] for each cycle, with two injections for each concentration) followed by a short (5 minutes) delay for dissociation, and regeneration using two injections of 50 μL of 10 mM glycine hydrochloride, pH 1.5.
# Affinities are determined based upon the equilibrium signal as reached at varying TGF-β3 concentrations by measuring the average signal during the last 10 seconds of the TGF-β3 injections, and then fitting the resulting signals at all of the TGF-β3 concentrations to a simple binding equilibrium model in SCRUBBER (Center for Biomolecular Interaction Analysis, Univ. of Utah). Model data determined for tested human mab composition of the invention of Kd and specificity calculated by dividing the Kd for TGF-β3 binding by the Kd for TGF-β1 binding (herein) is shown below in Table 5.
row,Binder,"Specificity (Kd, β3/Kd, β1)"
1,B1,9800
2,B2,1050
3,B3,621
4,B4,2320
